# Reference: the supplement of paper PMC11780869
# Test system: Bacillus subtilis
# Assay: cleaved RNA product abundance (RNA/gDNA barcode ratio) relative to median wild-type variant (ratio to wild type); higher = more accumulation of the downstream cleavage product
# Procedure: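 MPRA in B. subtilis. Mutagenized RNase Y cleavage-site regions (9% mutation rate) were inserted into a barcoded reporter mRNA (truncated aprE or tetM). Cells were grown in LB at 37°C to OD600 0.3. The cleaved RNA isoform was gel-purified and its barcodes counted; the RNA:gDNA barcode ratio was normalised to the median wild-type variant, and the median over barcodes is reported per variant. The printed sequence is the variable window only; the reporter flanks are not printed.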
# [1] = experiment (reporter, strain, medium): exp 4a: truncated aprE reporter, strain BJT201 with 2% xylose (RNase J1 expressed), cleavage site: cggR-gapA (positions -7 to +36 mutated)
# [2] = experiment (reporter, strain, medium): exp 2b: truncated aprE reporter, strain BJT200, cleavage site: cggR-gapA (positions -7 to +36 mutated)
# [3] = experiment (reporter, strain, medium): exp 8a: truncated aprE reporter, strain BJT201 with 2% xylose (RNase J1 expressed), cleavage site: glnRA (positions -5 to +31 mutated)
Sequence,cleaved RNA product abundance [1],cleaved RNA product abundance [2],cleaved RNA product abundance [3]
ACAGACGAAGGAGCCGCAAAGAAGTTATTAAAGGATAAATAATCTCTCAATATAAATATCTCTCACTTATTTAAA,0.112,–,–
ACAGACGAAGGAGCCGCAAAGAAGTTATTAAGGGATAAATAATCCCTCAATATAAAGATCTCTCACTTATTTAAA,0.505,0.482,–
ACAGACGAAGGAGCCGCAAAGAAGTTATTAAGGGCTAAATAATCCCTCAATATAAATATCTCTCACTTATTTAAA,0.368,0.389,–
ACAGACGAAGGAGCCGCAAAGAATTTATTAAGGGATGAACAATCCCTCAATATAAATATCTCTCACTTATTTAAA,0.451,–,–
CGACATGTCCCGCTTCTTTCATTACTCCGTTAGCAACTGTTTTGCTATATACATTCACCTTTTAAGAGGAGGAAT,–,–,0.658
ACAGACGAAGGAGCCGCAAAGAAGTTATTAAGGGTTGAATAATCCATCAATATAAATATCTCTCACTTATTTAAA,0.205,–,–
CGACATGTCCCGCTTCTTTCATTAATCCGTAAGCAACTGTTTTGCCATATACATTTACCTTTTAAGAGGAGGAAT,–,–,0.295
CGACATGTCCCGCTTCTTTCATTACTCCTTTAGCAACTGTTTTGCTATATACATTTACCTTTTAAGAGGAGGAAT,–,–,0.376
CGACATGTCCCGCTTCTTTCATTAATCCGTGAGCAAGTGTTTTGCTATATACATTTACCTTTTAAGAGGAGGAAT,–,–,0.375
ACAGACGAAGGAGCCGCAAAGAATTTTTTAAGGGATGAATAATCCCTCAATATAAATATCTCTCACTTATTTAAA,0.216,–,–
ACAGACGAAGGAGCCGCAAAGAAGTTAGTAAGGGATGAATAATCCATCAATATAAATATCTCTCACTTATTTAAA,–,0.251,–
CGACATGTCCCGCTTCTTTCATTACTCCGTTAGCAACTGTTTTGCTATATACATTTTCCTTTTAAGAGGAGGAAT,–,–,0.403
ACAGACGAAGGAGCCGCAAAGAAATTATTAAGGGATGAATAATCCCCCAATATAAATATCTCTCACTTATTTAAA,0.465,–,–
ACAGACGAAGGAGCCGCAAAGAAGATATTAAGGGATGAATAATCCTTCAATATAAATATCTCTCACTTATTTAAA,0.762,–,–
ACAGACGAAGGAGCCGCATAGAAGTTATTAAGGGATGACTAATCCCTCAATATAAATATCTCTCACTTATTTAAA,0.679,–,–
CGACATGTCCCGCTTCTTTCATTAATCTGTTAGCAACTGTTTTGCTATATACAGTTACCTTTTAAGAGGAGGAAT,–,–,0.249
ACAGACGAAGGAGCCGCAAAGAAGTTATTAAAGGATGAATAATCCCTAAATATAAATATCTCTCACTTATTTAAA,0.342,0.232,–
CGACATGTCCCGCTTCTTTCATTAATCCGTTAGCAACTGATTTGCTATATACATTTTCCTTTTAAGAGGAGGAAT,–,–,0.328
CGACATGTCCCGCTTCTTTCATTAATCGATTAGCAACTGTTTTGCTATATACATTTACCTTTTAAGAGGAGGAAT,–,–,0.79
CGACATGTCCCGCTTCTTTCATTAATACGTTAGCAACTGTTTTGCTAAATACATTTACCTTTTAAGAGGAGGAAT,–,–,0.266
ACAGACGAAGGAGCCGCAAAGAAGTTGTTAAGGCATGAATAATCCCTCAATATAAATATCTCTCACTTATTTAAA,–,0.103,–

Sequence,cleaved RNA product abundance [1],cleaved RNA product abundance [2],cleaved RNA product abundance [3]
ACAGACGAAGGAGCCGCAAAGAAGTTATTAAGTGATGAATAATCCCTCAATATAACTATCTCTCACTTATTTAAA,–,0.146,–
ACAGACGAAGGAGCCGCAAAGATGTTATTAAGGGATGAATAATCCCTAAATATAAATATCTCTCACTTATTTAAA,1.11,–,–
ACAGACGAAGGAGCCGCAAAGAAGTTATTAAGGGGTCAATAATCCCTCAATATAAATATCTCTCACTTATTTAAA,0.611,–,–
ACAGACGAAGGAGCCGCAAAGAAGTTATTAAGGGATGAATATTCCGTCAATATAAATATCTCTCACTTATTTAAA,0.194,–,–
ACAGACGAAGGAGCCGCAAAGAAGTTATTAAGGGATGAATAATCCTTCAATTTAAATATCTCTCACTTATTTAAA,0.138,0.144,–
ACAGACGAAGGAGCCGCAAAGAAGTTATTAAGGGATTAATAATCCCTCAATTTAAATATCTCTCACTTATTTAAA,0.176,–,–
CGACATGTCCCGCTTCTTTCATTAATCCGTTAGCAACTGTTTTGCGATATACATTTACCATTTAAGAGGAGGAAT,–,–,0.637
ACAGACGAAGGAGCCGCAAAGAAGTTATTAAGGGATGAACAATCCCTCACTATAAATATCTCTCACTTATTTAAA,0.331,–,–
ACAGACGAAGGAGCCGCAAAGAAGTTATTAAGGGATGAATAATCCCTCAACATACATATCTCTCACTTATTTAAA,0.273,–,–
CGACATGTCCCGCTTCTTTCATTAATCCGTTAGCAACTGTTATGCTATATACCTTTACCTTTTAAGAGGAGGAAT,–,–,0.184
ACAGACGAAGGAGCCGCAAAGAACTTATTAAGGGAGGAATAATCCCTCAATATAAATATCTCTCACTTATTTAAA,0.315,–,–
ACAGACGAAGGAGCCGCAAAGAAGTTATTAAGGGAAGAATAATCCCTCAATATGAATATCTCTCACTTATTTAAA,0.0705,–,–
CGACATGTCCCGCTTCTTTCATTAATCCGTTGCCAACTGTTTTGCTATATACATTTACCTTTTAAGAGGAGGAAT,–,–,0.264
ACAGACGAAGGAGCCGCAAAGAAGTTATTAATGGATGACTAATCCCTCAATATAAATATCTCTCACTTATTTAAA,0.114,0.0938,–
CGACATGTCCCGCTTCTTTCATTAATCCGTTATCAACTGTTTTGATATATACATTTACCTTTTAAGAGGAGGAAT,–,–,0.26
ACAGACGAAGGAGCCGCAAAGGACTTATTAAGGGATGAATAATCCCTCAATATAAATATCTCTCACTTATTTAAA,0.173,–,–
CGACATGTCCCGCTTCTTTCATTAATCCGTTAGCAACTGTTTTCCTATATACGTTTACCTTTTAAGAGGAGGAAT,–,–,0.26
ACAGACGAAGGAGCCGCAAAGACGTTATTAAGGGATGAATAATCCCTCAAGATAAATATCTCTCACTTATTTAAA,0.205,–,–
ACAGACGAAGGAGCCGCAAAGTAGTAATTAAGGGATGAATAATCCCTCAATATAAATATCTCTCACTTATTTAAA,0.191,–,–
ACAGACGAAGGAGCCGCAAAGAAGTTATTAAGGTATGAATAATCCCTCAATATAAAAATCTCTCACTTATTTAAA,0.153,0.107,–
ACAGACGAAGGAGCCGCAAAGAAGTTATTAAGGGATGAATTATCCCACAATATAAATATCTCTCACTTATTTAAA,0.319,–,–

Sequence,cleaved RNA product abundance [1],cleaved RNA product abundance [2],cleaved RNA product abundance [3]
ACAGACGAAGGAGCCGCAAAGAAGTTAATAAGGGATGAATAATCACTCAATATAAATATCTCTCACTTATTTAAA,0.109,0.112,–
ACAGACGAAGGAGCCGCAAAGAAGTTATTAAGTGATGAATAATCTCTCAATATAAATATCTCTCACTTATTTAAA,0.172,0.113,–
ACAGACGAAGGAGCCGCAAAGAAGTTATTAAGGGATGAATAATTCCTCTATATAAATATCTCTCACTTATTTAAA,0.248,–,–
ACAGACGAAGGAGCCGCTAAGAAGCTATTAAGGGATGAATAATCCCTCAATATAAATATCTCTCACTTATTTAAA,0.52,–,–
CGACATGTCCCGCTTCTTTCATTAATGCGATAGCAACTGTTTTGCTATATACATTTACCTTTTAAGAGGAGGAAT,–,–,0.395
ACAGACGAAGGAGCCGCAAAGAAGTTATTAAAGGATGAATATTCCCTCAATATAAATATCTCTCACTTATTTAAA,0.183,–,–
ACAGACGAAGGAGCCGCAAAGAACTTATAAAGGGACGAATAATCCCTCAATATAAATATCTCTCACTTATTTAAA,0.162,–,–
ACAGACGAAGGAGCCGCAAAAAAGTTATTAAGGGATGAGTAATCCCTCAATATAAATATCTCTCACTTATTTAAA,0.415,0.481,–
CGACATGTCCCGCTTCTTTCATTAATCCGTTAGAAACTGTTTTGCTATATAAATTTACCTTTTAAGAGGAGGAAT,–,–,0.256
ACAGACGAAGGAGCCGCAAAGAAGTTGTTAAGGGATGAATAATCCCTCAATATAAATACCTCTCACTTATTTAAA,0.182,–,–
CGACATGTCCCGCTTCTTTCATTATTCCGATAGCAACTGTTTTGCTATATACATTTACCTTTTAAGAGGAGGAAT,–,–,0.898
ACAGACGAAGGAGCCGCAAAGAAGTTATTAAGTTATGAATAATCCCTCAATATAAATAACTCTCACTTATTTAAA,0.117,–,–
ACAGACGAAGGAGCCGCAAAGAAGTTTTTAAGGGATGAATAATCCCTCACTATAAATATCTCTCACTTATTTAAA,0.267,–,–
ACAGACGAAGGAGCCGCAAAGAAGTTATTAAGGGACGAATAATCCCTCAGTATAAATATCTCTCACTTATTTAAA,0.415,–,–
CGACATGTCCCGCTTCTTTCATTAATCCGTTAGCAACTGTTTTAAAATATACATTTACCTTTTAAGAGGAGGAAT,–,–,0.571
ACAGACGAAGGAGCCGCAAAGAAGTTATTAAGGGATGAATAATCCCTAAATATAAATATCTCTCACTATTTAAAG,0.705,–,–
CGACATGTCCCGCTTCTTTCATTAATATGTTAGCAACTGTTTTGCTATATACATTTACCTTTTAAGAGGAGGAAT,–,–,0.819
CGACATGTCCCGCTTCTTTCATTAATCCGTTAGCAACTATTTTGTTATATACATTTACCTTTTAAGAGGAGGAAT,–,–,0.578
ACAGACGAAGGAGCCGCAAAGAAGTTATTAAGGGTCGAATAATCCCTCAATATAAATATCTCTCACTTATTTAAA,0.211,–,–
